The record followed here is US20220135638A1 (Takeda / Millennium, published 2022).

Numbered stars: 1 amine (or outer) side, 2 acyl side, 3 side chain; on linkers, the order of the positions; unused ones are H or OH. Square brackets hold non-standard residues; d marks the D form. Primed or numbered codes have the meaning given here. Side chains are listed from the residue outwards. Ends that are not written are not given here. * marks the point of attachment. C20 diacid = O=C(O)CCCCCCCCCCCCCCCCCCC(=O)*; C18 diacid = O=C(O)CCCCCCCCCCCCCCCCC(=O)*; C16 diacid = O=C(O)CCCCCCCCCCCCCCC(=O)*; γGlu = O=C(O)[C@H](CCC(=O)[*:2])N[*:1]; Iva = CC[C@](C)(N)C(=O)O; PEG3′ = not defined here; Aib = CC(C)(N)C(=O)O

For assay [1], the target named is T1, full-length human GIPR (GenBank NM_000164) with an N-terminal FLAG tag on HEK-293T cells (human), P48546.
T1 chain: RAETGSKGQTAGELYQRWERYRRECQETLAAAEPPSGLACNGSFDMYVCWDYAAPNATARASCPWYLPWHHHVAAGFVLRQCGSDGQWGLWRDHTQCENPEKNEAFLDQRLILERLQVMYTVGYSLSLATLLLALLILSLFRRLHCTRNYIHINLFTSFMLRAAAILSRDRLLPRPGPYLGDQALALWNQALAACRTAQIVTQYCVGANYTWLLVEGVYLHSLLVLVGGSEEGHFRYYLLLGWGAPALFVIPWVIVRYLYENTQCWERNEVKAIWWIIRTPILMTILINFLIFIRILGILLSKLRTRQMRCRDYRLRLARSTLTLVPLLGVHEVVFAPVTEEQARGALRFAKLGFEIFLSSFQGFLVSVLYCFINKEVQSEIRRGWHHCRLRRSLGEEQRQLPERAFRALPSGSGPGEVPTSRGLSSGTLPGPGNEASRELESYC
Nature of the assay: cell-based or functional assay.

The target in assay [2] is T2, full-length human GLP-1R (GenBank NM_002062) with an N-terminal FLAG tag on HEK-293T cells (human), P43220.
T2 chain: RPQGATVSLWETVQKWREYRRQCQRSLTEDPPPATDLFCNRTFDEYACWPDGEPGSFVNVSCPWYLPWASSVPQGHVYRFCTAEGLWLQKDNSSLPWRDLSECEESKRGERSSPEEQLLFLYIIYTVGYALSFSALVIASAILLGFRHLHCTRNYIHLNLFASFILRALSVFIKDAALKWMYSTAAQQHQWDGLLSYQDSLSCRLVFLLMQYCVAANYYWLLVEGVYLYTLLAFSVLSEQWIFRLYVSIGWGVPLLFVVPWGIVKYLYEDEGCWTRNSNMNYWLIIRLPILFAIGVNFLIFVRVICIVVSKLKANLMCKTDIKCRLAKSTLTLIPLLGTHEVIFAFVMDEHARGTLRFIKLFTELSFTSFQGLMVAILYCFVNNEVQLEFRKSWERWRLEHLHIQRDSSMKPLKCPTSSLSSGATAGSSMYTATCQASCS
The assay is described as follows: cell-based or functional assay.

B1: Compound No. 459 (peptide)
peptide: Y[Aib]EGTFISDYSIALDR[Aib]HQ[Aib]NFVNW[Iva]LAQRPSSGAPPK([Gly-Gly-Gly-Gly-Gly-γGlu-C16 diacid])S
modifications: ends and bridges not checked
In assay [1], B1 gave a GIP EC50(pM) of 0.41 pM. The GLP EC50 in assay [2] is over 1000 nM.

B2: Compound No. 453 (peptide)
peptide: Y[Aib]EGTFISDYSIALDR[Aib]HQ[Aib]NFVNW[Iva]LAQRPSSGAK([Gly-Gly-Gly-Gly-Gly-γGlu-C16 diacid])PPS
modifications: ends and bridges not checked
The molecule B2 came in with a GIP EC50(pM) in assay [1] of 0.6 pM. In assay [2], this molecule registered a GLP EC50 of over 1000 nM.

B3: Compound No. 447 (peptide)
peptide: Y[Aib]EGTFISDYSIALDR[Aib]HQ[Aib]NFVNW[Iva]LAQRPSSK([Gly-Gly-Gly-Gly-Gly-γGlu-C16 diacid])APPPS
modifications: ends and bridges not checked
B3 returned a GIP EC50(pM) in assay [1] of 0.31 pM. Besides, the GLP EC50 in assay [2] was over 1000 nM.

B4: Compound No 913 (peptide)
peptide: Y[Aib]EGTFISDYSIALDR[Aib]HQ[Aib]NFVNW[Iva]LAQRK([PEG3′-PEG3′-C20 diacid])SSGAPPPSR
modifications: ends and bridges not checked
With B4, the GLP EC50 in assay [2] was found to be 575 nM.

B5: Compound No. 446 (peptide)
peptide: Y[Aib]EGTFISDYSIALDR[Aib]HQ[Aib]NFVNW[Iva]LAQRPSK([Gly-Gly-Gly-Gly-Gly-γGlu-C20 diacid])GAPPPS
modifications: ends and bridges not checked
Regarding B5, in assay [1], the GIP EC50(pM) is 0.85 pM. In assay [2], this molecule displayed a GLP EC50 of 891 nM.

B6: Compound No. 444 (peptide)
peptide: Y[Aib]EGTFISDYSIALDR[Aib]HQ[Aib]NFVNW[Iva]LAQRPSK([Gly-Gly-Gly-Gly-Gly-γGlu-C16 diacid])GAPPPS
modifications: ends and bridges not checked
B6 had a GIP EC50(pM) in assay [1] of 0.39 pM. In addition, in assay [2], the GLP EC50 was over 1000 nM.

B7: Compound No. 441 (peptide)
peptide: Y[Aib]EGTFISDYSIALDR[Aib]HQ[Aib]NFVNW[Iva]LAQRPK([Gly-Gly-Gly-Gly-Gly-γGlu-C16 diacid])SGAPPPS
modifications: ends and bridges not checked
In assay [1], B7 displayed a GIP EC50(pM) of 0.33 pM. This molecule also yielded a GLP EC50 in assay [2] of over 1000 nM.

B8: Compound No. 456 (peptide)
peptide: Y[Aib]EGTFISDYSIALDR[Aib]HQ[Aib]NFVNW[Iva]LAQRPSSGAPK([Gly-Gly-Gly-Gly-Gly-γGlu-C16 diacid])PS
modifications: ends and bridges not checked
In turn, B8 showed a GIP EC50(pM) in assay [1] of 0.57 pM. In assay [2], the GLP EC50 was over 1000 nM.

B9: Compound No. 463 (peptide)
peptide: Y[Aib]EGTFISDYSIALDR[Aib]HQ[Aib]NFVNW[Iva]LAQRPSSGAPPPK([Gly-Gly-Gly-Gly-Gly-γGlu-C18 diacid])
modifications: ends and bridges not checked
Consider B9, for which, in assay [1], the GIP EC50(pM) turned out to be 0.52 pM. Further, the GLP EC50 in assay [2] is over 1000 nM.

B10: Compound No. 443 (peptide)
peptide: Y[Aib]EGTFISDYSIALDR[Aib]HQ[Aib]NFVNW[Iva]LAQRPK([Gly-Gly-Gly-Gly-Gly-γGlu-C20 diacid])SGAPPPS
modifications: ends and bridges not checked
B10: in assay [1], the GIP EC50(pM) was found to be 0.86 pM. The GLP EC50 in assay [2] stood at 977 nM.

B11: Compound No. 448 (peptide)
peptide: Y[Aib]EGTFISDYSIALDR[Aib]HQ[Aib]NFVNW[Iva]LAQRPSSK([Gly-Gly-Gly-Gly-Gly-γGlu-C18 diacid])APPPS
modifications: ends and bridges not checked
Turning to B11, the GIP EC50(pM) in assay [1] was 0.54 pM. The GLP EC50 in assay [2] was over 1000 nM.

B12: Compound No. 451 (peptide)
peptide: Y[Aib]EGTFISDYSIALDR[Aib]HQ[Aib]NFVNW[Iva]LAQRPSSGK([Gly-Gly-Gly-Gly-Gly-γGlu-C18 diacid])PPPS
modifications: ends and bridges not checked
In turn, B12 showed a GIP EC50(pM) in assay [1] of 0.74 pM. In assay [2], the GLP EC50 is over 1000 nM.

B13: Compound No. 454 (peptide)
peptide: Y[Aib]EGTFISDYSIALDR[Aib]HQ[Aib]NFVNW[Iva]LAQRPSSGAK([Gly-Gly-Gly-Gly-Gly-γGlu-C18 diacid])PPS
modifications: ends and bridges not checked
In turn, B13 gave a GIP EC50(pM) in assay [1] of 1.14 pM. Moreover, the GLP EC50 in assay [2] is over 1000 nM.

B14: Compound No. 460 (peptide)
peptide: Y[Aib]EGTFISDYSIALDR[Aib]HQ[Aib]NFVNW[Iva]LAQRPSSGAPPK([Gly-Gly-Gly-Gly-Gly-γGlu-C18 diacid])S
modifications: ends and bridges not checked
Consider B14, for which the GIP EC50(pM) in assay [1] came out at 0.44 pM. Moreover, in assay [2], the GLP EC50 was over 1000 nM.

B15: Compound No. 449 (peptide)
peptide: Y[Aib]EGTFISDYSIALDR[Aib]HQ[Aib]NFVNW[Iva]LAQRPSSK([Gly-Gly-Gly-Gly-Gly-γGlu-C20 diacid])APPPS
modifications: ends and bridges not checked
B15: the GIP EC50(pM) in assay [1] turned out to be 0.65 pM. The same molecule had a GLP EC50 in assay [2] of 912 nM.

B16: Compound No. 461 (peptide)
peptide: Y[Aib]EGTFISDYSIALDR[Aib]HQ[Aib]NFVNW[Iva]LAQRPSSGAPPK([Gly-Gly-Gly-Gly-Gly-γGlu-C20 diacid])S
modifications: ends and bridges not checked
Regarding B16, the GIP EC50(pM) in assay [1] was 1.3 pM. The molecule also came in with a GLP EC50 in assay [2] of over 1000 nM.

B17: Compound No. 457 (peptide)
peptide: Y[Aib]EGTFISDYSIALDR[Aib]HQ[Aib]NFVNW[Iva]LAQRPSSGAPK([Gly-Gly-Gly-Gly-Gly-γGlu-C18 diacid])PS
modifications: ends and bridges not checked
In turn, B17 displayed a GIP EC50(pM) in assay [1] of 0.82 pM. The GLP EC50 in assay [2] was over 1000 nM.

B18: Compound No. 452 (peptide)
peptide: Y[Aib]EGTFISDYSIALDR[Aib]HQ[Aib]NFVNW[Iva]LAQRPSSGK([Gly-Gly-Gly-Gly-Gly-γGlu-C20 diacid])PPPS
modifications: ends and bridges not checked
The molecule B18 displayed a GIP EC50(pM) in assay [1] of 2.17 pM. In assay [2], the GLP EC50 is over 1000 nM.

B19: Compound No. 442 (peptide)
peptide: Y[Aib]EGTFISDYSIALDR[Aib]HQ[Aib]NFVNW[Iva]LAQRPK([Gly-Gly-Gly-Gly-Gly-γGlu-C18 diacid])SGAPPPS
modifications: ends and bridges not checked
In assay [1], B19 gave a GIP EC50(pM) of 1.01 pM. In assay [2], this molecule gave a GLP EC50 of over 1000 nM.

B20: Compound No. 450 (peptide)
peptide: Y[Aib]EGTFISDYSIALDR[Aib]HQ[Aib]NFVNW[Iva]LAQRPSSGK([Gly-Gly-Gly-Gly-Gly-γGlu-C16 diacid])PPPS
modifications: ends and bridges not checked
In assay [1], B20 registered a GIP EC50(pM) of 0.4 pM. The molecule also returned a GLP EC50 in assay [2] of over 1000 nM.

B21: Compound No. 458 (peptide)
peptide: Y[Aib]EGTFISDYSIALDR[Aib]HQ[Aib]NFVNW[Iva]LAQRPSSGAPK([Gly-Gly-Gly-Gly-Gly-γGlu-C20 diacid])PS
modifications: ends and bridges not checked
As to B21, in assay [1], the GIP EC50(pM) was 1.31 pM. Also, the GLP EC50 in assay [2] was over 1000 nM.

B22: Compound No. 455 (peptide)
peptide: Y[Aib]EGTFISDYSIALDR[Aib]HQ[Aib]NFVNW[Iva]LAQRPSSGAK([Gly-Gly-Gly-Gly-Gly-γGlu-C20 diacid])PPS
modifications: ends and bridges not checked
As for B22, the GIP EC50(pM) in assay [1] is 2.24 pM. The molecule also gave a GLP EC50 in assay [2] of over 1000 nM.

B23: Compound No. 462 (peptide)
peptide: Y[Aib]EGTFISDYSIALDR[Aib]HQ[Aib]NFVNW[Iva]LAQRPSSGAPPPK([Gly-Gly-Gly-Gly-Gly-γGlu-C16 diacid])
modifications: ends and bridges not checked
On to B23, for which the GIP EC50(pM) in assay [1] was found to be 0.35 pM. Moreover, in assay [2], the GLP EC50 is over 1000 nM.

B24: Compound No. 445 (peptide)
peptide: Y[Aib]EGTFISDYSIALDR[Aib]HQ[Aib]NFVNW[Iva]LAQRPSK([Gly-Gly-Gly-Gly-Gly-γGlu-C18 diacid])GAPPPS
modifications: ends and bridges not checked
For the molecule B24, the GIP EC50(pM) in assay [1] stood at 0.38 pM. In addition, the GLP EC50 in assay [2] was over 1000 nM.
